Experimental data from patent US6495144.

Assays:
CBF1/RBPJk [1] = target: CBF1/RBPJk (UniProt Q06330); test: EMSA supershift with heparin-agarose purified CBF1 and Cp CBF1 site probe; phosphoimager, relative to wild-type EBNA2(252-425)
CBF1/RBPJk [2] = target: CBF1/RBPJk (UniProt Q06330); test: cell-based or functional assay
GAL4-CBF1 (KLV249AAA) = GAL4-CBF1 (KLV249AAA) (UniProt P04386); test: cell-based or functional assay
GAL4-CBF1 (wild-type) = GAL4-CBF1 (wild-type) (UniProt P04386); test: cell-based or functional assay
GAL4CBF1 (EEF233AAA) = GAL4CBF1 (EEF233AAA) (UniProt P04386); test: cell-based or functional assay
[3] = test system: CBF1 + EBNA2 GP320SR (CR6) GP320SR (Homo sapiens / Epstein-Barr virus); test: EMSA; conditions: supershifted complex relative to wild-type
[4] = test system: CBF1 + EBNA2 II307SR (CR5) II307SR (Homo sapiens / Epstein-Barr virus); test: EMSA; conditions: supershifted complex relative to wild-type
[5] = test system: CBF1 + EBNA2 LGL389SRT (CR7) LGL389SRT (Homo sapiens / Epstein-Barr virus); test: EMSA; conditions: supershifted complex relative to wild-type
[6] = test system: CBF1 + EBNA2 PI326SR (CR6) PI326SR (Homo sapiens / Epstein-Barr virus); test: EMSA; conditions: supershifted complex relative to wild-type
[7] = test system: CBF1 + EBNA2 SR360VD (PKC) SR360VD (Homo sapiens / Epstein-Barr virus); test: EMSA; conditions: supershifted complex relative to wild-type
[8] = test system: CBF1 + EBNA2 WW323SR (CR6) WW323SR (Homo sapiens / Epstein-Barr virus); test: EMSA; conditions: no supershifted complex
[9] = test system: CBF1 + EBNA2 del252-309,398-425 del252-309,del398-425 (Homo sapiens / Epstein-Barr virus); test: EMSA; conditions: no supershifted complex
[10] = test system: CBF1 + EBNA2 del252-366 del252-366 (Homo sapiens / Epstein-Barr virus); test: EMSA; conditions: no supershifted complex
[11] = test system: CBF1 + EBNA2 del343-425 del343-425 (Homo sapiens / Epstein-Barr virus); test: EMSA; conditions: no stable supershifted complex; partially competed CBF1 complex
[12] = test system: CBF1 + EBNA2 del344-357 del344-357 (Homo sapiens / Epstein-Barr virus); test: EMSA; conditions: supershifted complex relative to wild-type
[13] = test system: CBF1 + EBNA2 del376-425 del376-425 (Homo sapiens / Epstein-Barr virus); test: EMSA; conditions: supershifted complex relative to wild-type
[14] = test system: CBF1 + type A EBNA2 252-425 complex (Homo sapiens / Epstein-Barr virus); test: EMSA; conditions: supershifted EBNA2/CBF1 complex, reference; EBNA2 tethered through CBF1

Chain of CBF1/RBPJk (Q06330 whole entry, the tested form may be a part): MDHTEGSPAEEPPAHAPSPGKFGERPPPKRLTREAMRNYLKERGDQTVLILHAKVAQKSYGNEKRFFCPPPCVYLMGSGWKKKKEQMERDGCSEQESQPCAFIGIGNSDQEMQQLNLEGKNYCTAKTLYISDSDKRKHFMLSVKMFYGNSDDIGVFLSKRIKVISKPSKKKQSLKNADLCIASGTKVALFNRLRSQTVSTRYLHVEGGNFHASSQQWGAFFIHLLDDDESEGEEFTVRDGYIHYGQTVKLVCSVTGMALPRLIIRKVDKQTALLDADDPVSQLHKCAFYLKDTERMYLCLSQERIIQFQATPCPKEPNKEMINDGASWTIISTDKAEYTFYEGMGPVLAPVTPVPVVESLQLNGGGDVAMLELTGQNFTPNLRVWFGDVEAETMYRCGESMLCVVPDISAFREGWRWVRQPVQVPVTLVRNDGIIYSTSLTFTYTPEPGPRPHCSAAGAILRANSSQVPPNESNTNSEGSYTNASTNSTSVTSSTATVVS

EBNA2 252-425 II307SR (CR5) (from UniProt P12978 252-425)
% Complex formation (CBF1/RBPJk [1]): 20%

full-length EBNA2 GP320SR (CR6) (from UniProt P12978 1-487)
% Transactivation (CBF1/RBPJk [2]): 120%

full-length EBNA2 WW323SR (CR6) (from UniProt P12978 1-487)
% Transactivation (CBF1/RBPJk [2]): 0%

EBNA2 252-425 del344-357 (from UniProt P12978 252-343; P12978 358-425)
% Complex formation (CBF1/RBPJk [1]): 100%

full-length EBNA2 LGL389SRT (CR7) (from UniProt P12978 1-487)
% Transactivation (CBF1/RBPJk [2]): 100%

wild-type EBNA2 (full-length, type A) (from UniProt P12978 1-487)
% Transactivation (CBF1/RBPJk [2]): 100%

Notch2IC (from UniProt Q9QW30 1789-2471) (receptor)
Relative CAT Activity (relative to CAT reporter alone) (GAL4-CBF1 (KLV249AAA)): 1.3
Relative CAT Activity (relative to CAT reporter alone) (GAL4-CBF1 (wild-type)): 5.7
Relative CAT Activity (relative to CAT reporter alone) (GAL4CBF1 (EEF233AAA)): 4.5

full-length EBNA2 II307SR (CR5) (from UniProt P12978 1-487)
% Transactivation (CBF1/RBPJk [2]): 20%

EBNA2 252-425 del343-425 (from UniProt P12978 252-342)
% Complex formation (CBF1/RBPJk [1]): < 1%

EBNA2 252-425 del252-366 (from UniProt P12978 367-425)
% Complex formation (CBF1/RBPJk [1]): < 1%

full-length EBNA2 PI326SR (CR6) (from UniProt P12978 1-487)
% Transactivation (CBF1/RBPJk [2]): 2%
transactivation at the highest levels of effector DNA (Cp-CAT, DG75 cells) (CBF1/RBPJk [2]): 20%

Cp CBF1 binding site 30-bp probe
binding signal [3]: 90%
binding signal [4]: 20%
binding signal [5]: 50%
binding signal [6]: 5%
binding signal [7]: 60%
binding signal [8]: < 1%
binding signal [9]: < 1%
binding signal [10]: < 1%
binding signal [11]: < 1%
binding signal [12]: 100%
binding signal [13]: 10%
binding signal [14]: 100%

full-length EBNA2 SR360VD (PKC) (from UniProt P12978 1-487)
% Transactivation (CBF1/RBPJk [2]): 110%

EBNA2 252-425 del376-425 (from UniProt P12978 252-375)
% Complex formation (CBF1/RBPJk [1]): 10%

EBNA2 252-425 del252-309,398-425 (from UniProt P12978 310-397)
% Complex formation (CBF1/RBPJk [1]): < 1%

full-length EBNA2 del344-357 (from UniProt P12978 1-487)
% Transactivation (CBF1/RBPJk [2]): 150%

EBNA2 (effector of Table 2) (from UniProt P12978 1-487)
Relative CAT Activity (relative to CAT reporter alone) (GAL4-CBF1 (KLV249AAA)): 21

Notch1IC (from UniProt Q01705 1751-2531) (receptor)
Relative CAT Activity (relative to CAT reporter alone) (GAL4-CBF1 (KLV249AAA)): 1.3
Relative CAT Activity (relative to CAT reporter alone) (GAL4-CBF1 (wild-type)): 4.9
Relative CAT Activity (relative to CAT reporter alone) (GAL4CBF1 (EEF233AAA)): 4.2
